Reference: patent US6911324B2, “Induction of beta cell differentiation in human cells” (The Regents of the University of California, priority 2001, dated 2005)

Test system: βlox5 cells
Experiment: RT-PCR analysis of pancreatic hormone gene expression in βlox5 cells
Type: cell-based, human
Conditions: βlox5 cells expressing PDX-1; data not shown
Experimental: FIG. 2: RT-PCR analysis of pancreatic hormone gene expression in βlox5. The conditions tested were βlox5 cells grown in monolayer culture, βlox5 cells infected with a retroviral vector expressing PDX-1, βlox5 cells grown as three-dimensional aggregates, and βlox5 cells treated with exendin-4. FIG. 2(A) insulin; FIG. 2(B) quantitative RT-PCR analysis of insulin gene expression; FIG. 2(C) other pancreatic hormones. Exendin-4 (Sigma) was used at a concentration of 10 nM. RT-PCR for insulin, somatostatin, glucagon, and IAPP have been described previously (Itkin-Ansari et al., submitted). Quantitative RT-PCR was done by interpolation from a standard curve constructed using a plasmid containing the human insulin cDNA.
PDX-1 also acted synergistically with cell-cell contact to further increase the level of somatostatin expression about 1,000-fold above the cells not expressing PDX-1, to a level similar to that found in normal human islets. To determine whether βlox5 could be induced to express pancreatic hormones, recombinant PDX-1 was expressed in βlox5 using a retroviral vector. […] Therefore, other factors were examined for their ability to induce hormone expression in βlox5 cells expressing PDX-1. […]

B1: betacellulin (protein, UniProt P35070 32-111, looked up)
Betacellulin: DGNSTRSPETNGLLCGDPEENCAATTTQSKRKGHFSRCPKQYKHYCIKGRCRFVVAEQTPSCVCDEGYIGARCERVDLFY
notes: factor reported to induce endocrine differentiation in cell lines and primary cells
effect on hormone expression in βlox5 cells: no effect
